Laboratory results from paper PMC7243271 (Biochemistry, 2019).

Columns and labels:
[1] = molecular target: Nup358-min (residues 2147–2240 of human Nup358) (human, UniProt P49792 2147-2240); assay: SEC-MALS
SEC-MALS = molecular target: the molecule itself; assay: SEC-MALS

stoichiometry N [1]	Binder	stoichiometry N (SEC-MALS)
1	KLC2^TPR (residues 196–480 of mouse kinesin-1 light chain 2 isoform 1) (domain or fragment, UniProt O88448 196-480, looked up) RLRTLHNLVIQYASQGRYEVAVPLCKQALEDLEKTSGHDHPDVATMLNILALVYRDQNKYKDAAHLLNDALAIREKTLGKDHPAVAATLNNLAVLYGKRGKYKEAEPLCKRALEIREKVLGKFHPDVAKQLSNLALLCQNQGKAEEVEYYYRRALEIYATRLGPDDPNVAKTKNNLASCYLKQGKYQDAETLYKEILTRAHEKEFGSVNGENKPIWMHAEEREESKDKRRDRRPMEYGSWYKACKVDSPTVNTTLRTLGALYRPEGKLEAAHTLEDCASRSRKQG	–
–	Nup358-KLC2-fusion protein (other, human | mouse, UniProt P49792 2147-2240, looked up) LDIPLQTPHKLVDTGRAAKLIQRAEEMKSGLKDFKTFLTNDQTKVTEEENKGSGTGAAGASDTTIKPNPENTGPTLEWDNYDLREDALDDSVSSRLRTLHNLVIQYASQGRYEVAVPLCKQALEDLEKTSGHDHPDVATMLNILALVYRDQNKYKDAAHLLNDALAIREKTLGKDHPAVAATLNNLAVLYGKRGKYKEAEPLCKRALEIREKVLGKFHPDVAKQLSNLALLCQNQGKAEEVEYYYRRALEIYATRLGPDDPNVAKTKNNLASCYLKQGKYQDAETLYKEILTRAHEKEFGSVNGENKPIWMHAEEREESKDKRRDRRPMEYGSWYKACKVDSPTVNTTLRTLGALYRPEGKLEAAHTLEDCASRSRKQG	2
